Measurements taken from US20240343803A1 (SHANDONG SIMCERE BIOPHARMACEUTICAL, published 2024).

B1: PVRIG-A50-H2a (Fc fusion)
chain: EVQLVESGGGLVQPGGSLRLSCAASGFTFSYYDMSWVRQAPGKGLEWVSTINSNAGRTSYVDSVKGRFTISRDNTKNTLYLQMNSLRAEDTAVYYCVEGDPHNFGLESLSLRDFGSWGQGTMVTVSS
notes: humanized variant of PVRIG-A50; also called A50.VH2a; not shown: constant part not restated for the humanized forms; parents are VHH-hinge-CH2-CH3 of human IgG1; detected by anti-human
B2: PVRIG-A105-H1 (Fc fusion)
chain: EVQLVESGGGLVQPGGSLRLSCAASGRTFDRHTMSWFRQAPGKEREFVATASRIPGDTYYVDSVKGRFTISRDNAKNSLYLQMNSLRAEDTAVYYCAATSAYCSEVDCYEKGSWYDNWGQGTMVTVSS
notes: humanized variant of PVRIG-A105; also called A105.VH1; not shown: constant part not restated for the humanized forms; parents are VHH-hinge-CH2-CH3 of human IgG1; detected by anti-human
B3: PVRIG-A105-H3 (Fc fusion)
chain: EVQLVESGGGLVQPGGSLRLSCAASGRTFDRHTMTWFRQAPGKEREFVATASRIPGDTYYVDSVKGRFTISRDNAKNSVYLQMNSLRAEDTAVYYCAATSAYCSEVDCYEKGSWYDNWGQGTMVTVSS
notes: humanized variant of PVRIG-A105; also called A105.VH3; not shown: constant part not restated for the humanized forms; parents are VHH-hinge-CH2-CH3 of human IgG1; detected by anti-human
B4: PVRIG-A105-H4 (Fc fusion)
chain: EVQLVESGGGLVQPGGSLRLSCAASGRTFDRHTMTWFRQAPGKEREFVATASRIPGDTYYSHSVKGRFTISRDNAKNSLYLQMNSLRAEDTAVYYCAATSAYCSEVDCYEKGSWYDNWGQGTMVTVSS
notes: humanized variant of PVRIG-A105; also called A105.VH4; not shown: constant part not restated for the humanized forms; parents are VHH-hinge-CH2-CH3 of human IgG1; detected by anti-human
B5: PVRIG-A118-H4 (Fc fusion)
chain: EVQLVESGGGLVQPGGSLRLSCAASETYFDLYVMGWYRQAPGKDRELVATITYTGSIKYVDSVKGRFTISRGDAKNSLSLQMNSLRAEDTAVYYCNADPSGLGRKVYWGQGTMVTVSS
notes: humanized variant of PVRIG-A118; also called A118.VH4; not shown: constant part not restated for the humanized forms; parents are VHH-hinge-CH2-CH3 of human IgG1; detected by anti-human
B6: PVRIG-A118-H5 (Fc fusion)
chain: EVQLVESGGGLVQPGGSLRLSCAASETYFDLYVMGWYRQAPGKDRELVATITYTGSIKYVDSVKGRFTISRGDAKNSVYLQMNSLRAEDTAVYYCNADPSGLGRKVYWGQGTMVTVSS
notes: humanized variant of PVRIG-A118; also called A118.VH5; not shown: constant part not restated for the humanized forms; parents are VHH-hinge-CH2-CH3 of human IgG1; detected by anti-human
B7: PVRIG-A118-H6 (Fc fusion)
chain: EVQLVESGGGLVQPGGSLRLSCAASETYFDLYVMGWYRQAPGKDRELVATITYTGSIKIVDSVKGRFTISRGDAKNSLYLQMNSLRAEDTAVYYCNADPSGLGRKVYWGQGTMVTVSS
notes: humanized variant of PVRIG-A118; also called A118.VH6; not shown: constant part not restated for the humanized forms; parents are VHH-hinge-CH2-CH3 of human IgG1; detected by anti-human
B8: PVRIG-A118-H7 (Fc fusion)
chain: EVQLVESGGGLVQPGGSLRLSCAASETYFDLYVMGWYRQAPGKDRELVATITYTGSIKYVDSVKGRFTISRGDAKNSLYLQMNSLRAEDTAVYFCNADPSGLGRKVYWGQGTMVTVSS
notes: humanized variant of PVRIG-A118; also called A118.VH7; not shown: constant part not restated for the humanized forms; parents are VHH-hinge-CH2-CH3 of human IgG1; detected by anti-human
B9: PVRIG-A50-H1 (Fc fusion)
chain: EVQLVESGGGLVQPGGSLRLSCAASGFTFSYYDMSWVRQAPGKGLEWVSTINSNGGRTSYVDSVKGRFTISRDNSKNTLYLQMNSLRAEDTAVYYCVEGDPHNFGLENLSLRDFGSWGQGTMVTVSS
notes: humanized variant of PVRIG-A50; also called A50.VH1; not shown: constant part not restated for the humanized forms; parents are VHH-hinge-CH2-CH3 of human IgG1; detected by anti-human
B10: PVRIG-A50-H1d (Fc fusion)
chain: EVQLVESGGGLVQPGGSLRLSCAASGFTFSYYDMSWVRQAPGKGLEWVSTINSNGGRTSYVDSVKGRFTISRDNSKNTLYLQMNSLRAEDTAVYYCVEGDPHNFGLESLSLRDFGSWGQGTMVTVSS
notes: humanized variant of PVRIG-A50; also called A50.VH1d; not shown: constant part not restated for the humanized forms; parents are VHH-hinge-CH2-CH3 of human IgG1; detected by anti-human
B11: PVRIG-A118-H3 (Fc fusion)
chain: EVQLVESGGGLVQPGGSLRLSCAASETYFDLYVMGWYRQAPGKDRELVATITYTGSIKYVDSVKGRFTISRGDAKNSLYLQMNSLRAEDTAVYYCNADPSGLGRKVYWGQGTMVTVSS
notes: humanized variant of PVRIG-A118; also called A118.VH3; not shown: constant part not restated for the humanized forms; parents are VHH-hinge-CH2-CH3 of human IgG1; detected by anti-human

What was measured:
[1] = molecular target: T1, human PVRIG-his (AcroBiosystems, Cat NO. PVG-H52H4) (human, UniProt Q6DKI7 41-171, limits assumed); assay: SPR (BIAcore), antibody captured on Protein A chip, human PVRIG-His analyte
T1 construct: also called human PVRIG protein
T1 sequence (looked up): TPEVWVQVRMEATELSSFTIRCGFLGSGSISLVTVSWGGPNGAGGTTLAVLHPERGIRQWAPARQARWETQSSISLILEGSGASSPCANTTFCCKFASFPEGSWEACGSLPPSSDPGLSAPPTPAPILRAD
Experimental: Biacore was used to detect the specific binding between anti-PVRIG antibody and human PVRIG protein. Protein A chip was used in the BIAcore assay. The time required for the chip to capture the diluted antibody and saturate the binding antigen to reach Rₘₐₓ (Maximum binding capacity, 50 RU) was measured by manual run. […] The affinity of antibody for antigen was measured by multi-cycle kinetics. In each cycle, the antibodies were injected prior to the injection of gradient concentraions of PVRIG proteins allowing the occurrence of antibody-antigen association and dissociation After each cycle, the Protein A chip was regenerated by Glycine, pH 1.5 (to remove the proteins on the chip). The affinity of antibody for antigen was calculated by BIAcore T200 analysis software.
The methods refer to Example 10.

[2] = molecular target: T1, human PVRIG-his (AcroBiosystems, Cat …); assay: competition ELISA, PVRIG-His coated, competitor human PVRL2-mFc; design: AUC: unit not given here
Experimental: The ELISA plate was pre-coated with 100 μL/well of 0.5 μg/mL human PVRIG-his protein (AcroBiosystems, Cat NO. PVG-H52H4). The tested anti-PVRIG antibodies were diluted from the highest concentration of 16 nM (two-fold concentration). The diluted antibodies were mixed with 18 ng/ml human PVRL2-mFc (AcroBiosystems, Cat NO. CD2-H5257) in equal volume, added into the plate (100 μL/well), and incubated with shaking at room temperature for 2.0 hours. […] A HRP substrate, TMB (Thermo, Cat NO. 34029) was added into wells after washing the plate again for color development. After adding a termination solution to terminate the reaction, the absorbance value was read by a microplate reader (MD i3×). An inhibiting curve was drawn with concentration of antibodies as the abscissa and the corresponding OD value as the ordinate. The IC50 value was calculated by using a Four Parameter Logistic Fit (GraphPadPrism9). The smaller the IC50 value, the stronger the ability of the antibodies inhibits the binding between PVRIG and PVRL2. The positive and negative controls are the same as in Example 8.
The methods refer to Example 11. The inhibiting activity of the humanized antibodies was normalized to the corresponding parental antibodies. If the percentage value is higher than 100%, the inhibiting effect of humanized antibodies is better than that of parental antibodies.

[3] = molecular target: T2, human PVRIG on FlpinCHO-PVRIG cells (human, UniProt Q6DKI7 41-326); assay: FACS, FlpinCHO-PVRIG cells
T2 construct: whole, on cells
T2 sequence (looked up): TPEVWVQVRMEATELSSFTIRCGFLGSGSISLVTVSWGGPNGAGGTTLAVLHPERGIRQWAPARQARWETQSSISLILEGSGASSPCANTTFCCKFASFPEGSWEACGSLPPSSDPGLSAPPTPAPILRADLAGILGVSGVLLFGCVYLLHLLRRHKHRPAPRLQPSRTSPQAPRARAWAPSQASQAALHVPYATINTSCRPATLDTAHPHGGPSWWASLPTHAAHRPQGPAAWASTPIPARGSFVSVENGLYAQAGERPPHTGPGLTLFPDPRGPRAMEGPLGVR
Experimental: The Ham's F12 (Gibico, 21127-022) complete medium containing 10% FBS was then added to terminate the digestion and acquire cell suspension. After counting with a cell counter (Beckman Coulter, Vi-CELL), an appropriate amount of cell suspension was centrifuged at 350×g to remove the supernatant, washed twice with PBS, stained with Zombie violet (Biolegend, 423114) and incubated at room temperature for 20 minutes. After incubation, the cells were added with staining buffer (2% FBS+PBS) to stop staining, centrifuged at 350×g to remove the supernatant, washed twice and resuspended with staining buffer to a density of 2×10⁶ cells/mL. The cells were plated into a 96-well plate (50 μL of cell suspension per well) for further use. The antibodies were diluted from the highest concentration of 46 nM (two-fold concentration) with staining buffer by 3.3-fold serial dilution. The diluted antibodies were added to the well containing 50 μL of cell suspension. The plate was placed on a microplate shaker at 400 rpm for 1 minute to fully mix the antibodies and cells, and then incubated at 4° C. for 30 minutes. After the incubation, the cells were washed twice with staining buffer (200 μL per well) and centrifuged at 350×g for 5 minutes to discard the supernatant. The PE goat anti-human IgG Fc antibody (ebioscience, 12-4998-82) was diluted 250 times with staining buffer, added into the washed wells (100 μL per well), mixed well, and stained at 4° C. for 30 minutes. After staining, the cells were washed twice with staining buffer, finally resuspended with 200 μL staining buffer and analyzed by flow cytometry (BD, Canto II). The stronger the signal, the stronger the ability of the antibodies binds to PVRIG. An antibody binding curve was drawn with concentration of antibodies as the abscissa and the corresponding Mean Fluorescence Intensity (MFI) as the ordinate. The AUC value of the curve was calculated by using a Four Parameter Logistic Fit (GraphPadPrism9). The stronger the AUC value, the stronger the ability of the antibodies binds to FlpinCHO-PVRIG and FlpinCHO-cyno PVRIG. […] The binding activity of the antibodies was normalized to the positive control COM701-hIgG1 and SRF813-hIgG1.

Row | Binder | Kd [1] [nM] | koff [1] [s⁻¹] | kon [1] [M⁻¹ s⁻¹] | % relative activity (AUC) parental antibody/test antibody [2] [%] | % relative activity (IC50) parental antibody/test antibody [2] [%] | AUC [2] | IC50 [2] [nM] | AUC % to COM701-hIgG1 [3] [%] | AUC % to SRF813-hIgG1 [3] [%] | AUC % to parental Ab [3] [%]
1 | B1 | 0.0585 | 1.61e-05 | 276000 | 86.4 | 85.3 | 2.32 | 0.911 | 61.9 | 110 | 84.4
2 | B2 | 0.932 | 0.0013 | 1.39e+06 | 112 | 133 | 2.27 | 0.555 | 123 | 185 | 99.1
3 | B3 | 0.622 | 0.000576 | 925000 | 101 | 97.9 | 2.52 | 0.752 | 125 | 189 | 101
4 | B4 | 0.796 | 0.000773 | 972000 | 109 | 107 | 2.32 | 0.686 | 115 | 174 | 93.1
5 | B5 | 1.21 | 0.00327 | 2.69e+06 | 112 | 120 | 1.42 | 0.462 | 132 | 185 | 97
6 | B6 | 1.37 | 0.00383 | 2.79e+06 | 114 | 146 | 1.39 | 0.381 | 128 | 179 | 93.9
7 | B7 | 1.1 | 0.00299 | 2.71e+06 | 108 | 132 | 1.47 | 0.422 | 129 | 180 | 94.2
8 | B8 | 1.08 | 0.0026 | 2.41e+06 | 114 | 129 | 1.38 | 0.43 | 126 | 177 | 92.7
9 | B9 | 0.0362 | 1.48e-05 | 410000 | 82.6 | 77.5 | 2.42 | 1 | 74.4 | 132 | 101
10 | B10 | 0.0545 | 1.43e-05 | 262000 | 83.2 | 75 | 2.4 | 1.03 | 63.1 | 112 | 85.9
11 | B11 | 1.35 | 0.00349 | 2.59e+06 | 106 | 144 | 1.49 | 0.386 | 129 | 180 | 94.5
